Positions count from the first letter of the chain named.
What was measured:
Settings in all cases: protein: recombinant; tags: N-terminal GST; label: 5'-6-FAM; hairpin with two bulges
K754E = target: T1, K754E (Drosophila melanogaster, UniProt Q9W1K4 512-819, K754E); experiment: fluorescence anisotropy; FA: 20 mM HEPES-NaOH pH 7.5, 100 mM NaCl, 10% glycerol, 20 C, 10 nM FAM-RNA; competition: 150 nM Egl512-819 + 10 nM FAM-K10 TLS, same buffer
T1 sequence: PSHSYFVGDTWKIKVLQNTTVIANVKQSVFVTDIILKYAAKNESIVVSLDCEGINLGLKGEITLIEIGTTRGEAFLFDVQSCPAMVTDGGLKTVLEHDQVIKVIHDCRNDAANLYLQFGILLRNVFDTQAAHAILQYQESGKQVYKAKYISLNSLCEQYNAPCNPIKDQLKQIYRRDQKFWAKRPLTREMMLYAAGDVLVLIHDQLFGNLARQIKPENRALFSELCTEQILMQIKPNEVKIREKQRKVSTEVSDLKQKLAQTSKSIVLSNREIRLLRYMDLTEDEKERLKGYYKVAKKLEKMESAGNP

R785A = target: T2, R785A (Drosophila melanogaster, UniProt Q9W1K4 512-819, R785A); experiment: as above
T2 sequence: T1 sequence with E243K, R274A

K659E/K754E/R788E = target: T3, K659E/K754E/R788E (Drosophila melanogaster, UniProt Q9W1K4 512-819, K659E;K754E;R788E); experiment: fluorescence anisotropy; binding not detected; FA: 20 mM HEPES-NaOH pH 7.5, 100 mM NaCl, 10% glycerol, 20 C, 10 nM FAM-RNA; competition: 150 nM Egl512-819 + 10 nM FAM-K10 TLS, same buffer
T3 sequence: T1 sequence with K148E, R277E

In the case of CUUGAUUGUAUUUUUAAAUUAAUUCUUAAAAACUACAAAUUAAG (structured_RNA) [K10 TLS (FAM)], the Kd (K754E) is reported as 263 ± 16 nM, the Kd (R785A) is reported as 194 ± 10 nM and the binding result (K659E/K754E/R788E) is reported as “no binding”.

From doi:10.1101/2025.08.03.668247, “The structure of Egalitarian in complex with the K10 mRNA localization signal reveals a modular binding surface required for function”
